Reference: patent US20150307628A1

Assays:
[1] = target: dummy-Fc heavy chain constant region with CH3B of mutant SW-WVT (S-S) (Y349C/E357W/D399V/F405T) (human) [IgG part: P0DOX5]; assay: non-reducing SDS-PAGE, SW-WVT (S-S) against SW-WVT
[2] = target: dummy-Fc heavy chain constant region with CH3B of mutant EW-RVT (S-S) (Q347R/S354C/D399V/F405T) (human) [IgG part: P0DOX5]; assay: non-reducing SDS-PAGE, EW-RVT (S-S) against EW-RVT

Substance	greater heterodimer formability than the variant without disulfide bridge [1]	greater heterodimer formability than the variant without disulfide bridge [2]
hAY4a scFv-Fc heavy chain with CH3A of mutant SW-WVT (S-S) (Y349S/S354C/K409W) (from UniProt P0DOX5 227-449) (Fc fusion)	9%	
hAY4a scFv-Fc heavy chain with CH3A of mutant EW-RVT (S-S) (Y349C/K360E/K409W) (from UniProt P0DOX5 227-449) (Fc fusion)		3%
